Measured values from publication PMC9706586.
One block for each substance: values may come before it.

Legend:
FcγRI = FcγRI (UniProt P12314); test: SPR; Biacore T200; CM5 chip with immobilised anti-His antibody captures the His-tagged receptor or antigen; serial dilutions of antibody injected (120 s binding, 240 s dissociation, 30 µL/min); 20 °C; 1:1 binding kinetic model or steady-state affinity model
CD89 (human) = CD89 (human) (UniProt P24071); test: as above
FcγRIIa^H131 (human) = FcγRIIa^H131 (human) (UniProt P12318); test: SPR; Biacore T200, CM5 chip with immobilised anti-His antibody, 20 °C; His-tagged receptor or antigen captured; serial dilutions of anti-CD20 X-body, IgG or IgA injected (120 s binding, 240 s dissociation, 30 µL/min); 1:1 binding kinetic model or steady-state affinity model
FcγRIIIa^V158 (human) = test: as above
FcRn = FcRn (UniProt P55899); test: as above
FcγRIIIa^F158 (human) = FcγRIIIa^F158 (human) (UniProt P08637); test: as above
CD20 (human) = CD20 (human) (UniProt P11836); test: as above
FcγRIIb (human) = FcγRIIb (human) (UniProt P31994); test: as above
Sequence of FcγRIIb (human) (P31994 43-217): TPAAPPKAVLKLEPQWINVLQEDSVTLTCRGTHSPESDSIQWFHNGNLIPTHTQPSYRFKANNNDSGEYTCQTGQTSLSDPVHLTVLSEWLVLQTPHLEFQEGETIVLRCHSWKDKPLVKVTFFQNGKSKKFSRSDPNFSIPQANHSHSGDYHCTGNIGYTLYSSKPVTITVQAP

Sequence of FcγRI (P12314 16-374): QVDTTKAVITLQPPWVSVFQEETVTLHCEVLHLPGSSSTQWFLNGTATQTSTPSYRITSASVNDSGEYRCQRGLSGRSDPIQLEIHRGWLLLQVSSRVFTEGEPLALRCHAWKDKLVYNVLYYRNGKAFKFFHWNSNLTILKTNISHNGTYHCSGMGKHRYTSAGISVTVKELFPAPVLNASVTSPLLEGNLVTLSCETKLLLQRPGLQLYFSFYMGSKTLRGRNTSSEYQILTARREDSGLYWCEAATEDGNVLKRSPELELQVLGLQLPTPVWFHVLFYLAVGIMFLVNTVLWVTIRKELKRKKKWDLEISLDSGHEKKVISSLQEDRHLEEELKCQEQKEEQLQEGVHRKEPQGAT
Sequence of CD20 (human) (P11836 whole entry): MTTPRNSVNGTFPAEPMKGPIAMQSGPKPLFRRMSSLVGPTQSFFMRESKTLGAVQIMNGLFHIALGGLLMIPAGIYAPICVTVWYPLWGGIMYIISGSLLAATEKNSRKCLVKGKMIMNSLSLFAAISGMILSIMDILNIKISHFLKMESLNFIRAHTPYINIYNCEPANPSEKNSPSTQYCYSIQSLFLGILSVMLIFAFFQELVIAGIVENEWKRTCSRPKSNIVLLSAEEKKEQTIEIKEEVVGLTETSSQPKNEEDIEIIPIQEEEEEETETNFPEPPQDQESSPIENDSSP
Sequence of CD89 (human) (P24071 22-287): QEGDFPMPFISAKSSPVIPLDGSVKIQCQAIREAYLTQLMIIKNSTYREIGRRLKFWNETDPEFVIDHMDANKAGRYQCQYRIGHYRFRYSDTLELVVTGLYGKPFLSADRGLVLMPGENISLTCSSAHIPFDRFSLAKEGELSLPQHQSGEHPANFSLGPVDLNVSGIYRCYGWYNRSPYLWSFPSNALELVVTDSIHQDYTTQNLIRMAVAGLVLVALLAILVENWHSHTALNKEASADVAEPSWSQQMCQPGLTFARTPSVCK
Sequence of FcγRIIIa^F158 (human) (P08637 17-208): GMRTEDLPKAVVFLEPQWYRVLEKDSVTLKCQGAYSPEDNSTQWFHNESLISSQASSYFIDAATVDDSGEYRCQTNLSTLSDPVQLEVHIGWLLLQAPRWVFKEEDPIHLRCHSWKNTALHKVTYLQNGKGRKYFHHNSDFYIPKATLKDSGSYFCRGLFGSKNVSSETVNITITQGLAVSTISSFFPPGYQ
Sequence of FcγRIIa^H131 (human) (P12318 34-217): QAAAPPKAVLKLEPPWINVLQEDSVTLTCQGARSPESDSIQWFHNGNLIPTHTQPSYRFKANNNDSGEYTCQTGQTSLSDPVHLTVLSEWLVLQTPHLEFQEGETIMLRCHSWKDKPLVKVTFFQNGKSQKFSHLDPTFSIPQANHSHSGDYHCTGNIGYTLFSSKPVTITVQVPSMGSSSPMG

Kd (FcγRI): 113 nM
Substance: trastuzumab IgG (antibody)

Kd (CD89 (human)): 58.8 nM
Kd (FcγRI): 272 nM
Substance: trastuzumab IgA (antibody)

Kd (FcγRIIa^H131 (human)): 0.0548 nM
Kd (FcγRIIIa^V158 (human)): 0.0603 nM
Kd (FcRn): 0.0391 nM
Kd (FcγRIIIa^F158 (human)): 0.0663 nM
Kd (CD20 (human)): 3.74 nM
Kd (FcγRIIb (human)): 0.00277 nM
Substance: Rituximab IgG (antibody)

Kd (CD20 (human)): 6.71 nM
Substance: Rituximab IgA (antibody)
